Measured values: article PMC2291188 (The Journal of Cell Biology, 1995)
Several values for one entry are separate records, joined by “and”; a condition that tells them apart may be missing. Identical values can stand only once.

Target: T1, proPC2 (proform of the prohormone convertase PC2) (UniProt P28841 25-637)
T1 sequence (looked up): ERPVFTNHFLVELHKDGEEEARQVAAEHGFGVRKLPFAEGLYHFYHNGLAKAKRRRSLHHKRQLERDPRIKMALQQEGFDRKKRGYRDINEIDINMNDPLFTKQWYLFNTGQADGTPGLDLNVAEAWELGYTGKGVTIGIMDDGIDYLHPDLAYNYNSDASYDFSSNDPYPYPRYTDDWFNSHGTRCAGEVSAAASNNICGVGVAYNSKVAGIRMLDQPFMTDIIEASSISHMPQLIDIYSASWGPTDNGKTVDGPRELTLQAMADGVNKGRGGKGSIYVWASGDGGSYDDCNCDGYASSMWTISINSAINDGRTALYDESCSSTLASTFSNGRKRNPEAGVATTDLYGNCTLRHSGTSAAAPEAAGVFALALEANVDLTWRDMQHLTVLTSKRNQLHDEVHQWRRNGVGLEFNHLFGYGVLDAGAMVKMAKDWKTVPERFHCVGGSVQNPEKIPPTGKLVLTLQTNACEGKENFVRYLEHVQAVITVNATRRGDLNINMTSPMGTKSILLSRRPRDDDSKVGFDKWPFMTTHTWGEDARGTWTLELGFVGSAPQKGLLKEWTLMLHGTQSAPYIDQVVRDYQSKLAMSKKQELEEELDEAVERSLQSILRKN
Assay: co-IP

B1: 27 kD 7B2 (rat) (natural protein, UniProt P27682 25-210, looked up)
chain: YSPRTPDRVSETDIQRLLHGVMEQLGIARPRVEYPAHQAMNLVGPQSIEGGAHEGLQHLGPFGNIPNIVAELTGDNIPKDFSEDQGYPDPPNPCPLGKTADDGCLENAPDTAEFSREFQLDQHLFDPEHDYPGLGKWNKKLLYEKMKGGQRRKRRSVNPYLQGKRLDNVVAKKSVPHFSEEEKEPE
stoichiometry N: 1.12 mol 7B2 per mol PC2 (molar ratio, Clone#1) and 1.09 mol 7B2 per mol PC2 (molar ratio, Clone#2)
